Laboratory results reported in patent publication US20260152543A1 (KRIYA THERAPEUTICS, published 2026).

What was measured:
C4b (Complement Tech) [1] = target: C4b (Complement Tech) (UniProt P0C0L4); assay: BLI (GatorPrime), His-tagged protein on Ni-NTA probe, ligand in 7-point dilution series
C4b (Complement Tech) [2] = target: C4b (Complement Tech) (UniProt P0C0L4); assay: SPR (Biacore 8K), His-tagged receptor captured by anti-His on CM5, C4b analyte 31.25-2000 nM, steady state affinity
C4b (Complement Tech) [3] = target: C4b (Complement Tech) (UniProt P0C0L4); assay: SPR (Biacore 8K), His-tagged fusion protein captured by anti-His on CM5, C4b analyte 62.5-2000 nM, steady state affinity
C4b (Complement Tech) [4] = target: C4b (Complement Tech) (UniProt P0C0L4); assay: BLI (GatorPrime), ratio of KD to that of rhCR1 for C4b
iC3b (Complement Tech) [5] = target: T1, iC3b (Complement Tech) (UniProt P01024 23-667; P01024 749-1303; P01024 1321-1663, limits assumed); assay: BLI (GatorPrime), His-tagged protein on Ni-NTA probe, ligand in 7-point dilution series
T1 construct: iC3b is a multi-chain fragment of C3
Experimental: The binding kinetics of CR2-CR1 fusion proteins, human CR1, and human CR2 to their respective ligands were determined using biolayer interferometry (BLI) with a GatorPrime instrument (Gator Bio). Recombinant His-tagged human CR1 (R&D Systems), human CR2 (R&D Systems), or CR2-CR1 fusion proteins (GenScript) were immobilized onto Ni-NTA probes, and the response signals from the protein-loaded probes binding to C3d, iC3b, C3b, or C4b (Complement Tech) in a 7-point dilution series were measured for a 300 second association step, followed by a 300 second dissociation step in assay buffer. To reduce assay background/noise due to non-specific complement protein binding, a double reference was applied using a 0 nM ligand condition (Sample or Reference Probe Blank) and a series of Ni-NTA probes not loaded with protein (Reference Probe) according to the following equation: Sample Response=(Sample Signal−Reference Probe Signal)−(Sample Blank Signal−Reference Probe Blank Signal). The binding affinity constant, KD, and association/dissociation rate constants, kₒₙ/koff, for all binding interactions were calculated using the GatorOne software (Gator Bio).

iC3b (Complement Tech) [6] = target: T1, iC3b (Complement Tech); assay: SPR (Biacore 8K), His-tagged receptor captured by anti-His on CM5, iC3b analyte 19.5-1250 nM, steady state affinity
Experimental: The binding of recombinant human CR1, recombinant human CR2, and recombinant CR2CR1 #1 (SEQ ID NO: 22), and recombinant CR2CR1 #7 (SEQ ID NO: 12) protein to their respective ligands C3b, C4b, iC3b, and/or C3d was analyzed using a Biacore 8K SPR system (Cytiva). Histidine-tagged complement receptors and fusion proteins were immobilized onto Series S Sensor Chip CM5 using a His Antibody Capture Kit, with capture levels of 60-470 RU. C3b, C4b, iC3b, and C3d were prepared in 1×HBS-EP buffer (10 mM HEPES, 150 mM NaCl, 3 mM EDTA, and 0.05% v/v Surfactant P20), pH 7.4, at concentrations ranging from 3-16000 nM, and the analytes were injected at a flow rate of 30 μL/min. Binding at 25° C. was monitored for 150 seconds, followed by a dissociation phase of 300 seconds. Chip sensors were regenerated for 60 seconds with 10 mM glycine-HCl buffer, pH 1.5. The data were processed and analyzed with Biacore Insight Evaluation Software; a 1:1 binding model (C3b analyte) or steady state affinity (C4b, iC3b, C3d analytes) was used to calculate the apparent KD value and other kinetic parameters.

C4b (Complement Tech), sequence (P0C0L4 20-1744): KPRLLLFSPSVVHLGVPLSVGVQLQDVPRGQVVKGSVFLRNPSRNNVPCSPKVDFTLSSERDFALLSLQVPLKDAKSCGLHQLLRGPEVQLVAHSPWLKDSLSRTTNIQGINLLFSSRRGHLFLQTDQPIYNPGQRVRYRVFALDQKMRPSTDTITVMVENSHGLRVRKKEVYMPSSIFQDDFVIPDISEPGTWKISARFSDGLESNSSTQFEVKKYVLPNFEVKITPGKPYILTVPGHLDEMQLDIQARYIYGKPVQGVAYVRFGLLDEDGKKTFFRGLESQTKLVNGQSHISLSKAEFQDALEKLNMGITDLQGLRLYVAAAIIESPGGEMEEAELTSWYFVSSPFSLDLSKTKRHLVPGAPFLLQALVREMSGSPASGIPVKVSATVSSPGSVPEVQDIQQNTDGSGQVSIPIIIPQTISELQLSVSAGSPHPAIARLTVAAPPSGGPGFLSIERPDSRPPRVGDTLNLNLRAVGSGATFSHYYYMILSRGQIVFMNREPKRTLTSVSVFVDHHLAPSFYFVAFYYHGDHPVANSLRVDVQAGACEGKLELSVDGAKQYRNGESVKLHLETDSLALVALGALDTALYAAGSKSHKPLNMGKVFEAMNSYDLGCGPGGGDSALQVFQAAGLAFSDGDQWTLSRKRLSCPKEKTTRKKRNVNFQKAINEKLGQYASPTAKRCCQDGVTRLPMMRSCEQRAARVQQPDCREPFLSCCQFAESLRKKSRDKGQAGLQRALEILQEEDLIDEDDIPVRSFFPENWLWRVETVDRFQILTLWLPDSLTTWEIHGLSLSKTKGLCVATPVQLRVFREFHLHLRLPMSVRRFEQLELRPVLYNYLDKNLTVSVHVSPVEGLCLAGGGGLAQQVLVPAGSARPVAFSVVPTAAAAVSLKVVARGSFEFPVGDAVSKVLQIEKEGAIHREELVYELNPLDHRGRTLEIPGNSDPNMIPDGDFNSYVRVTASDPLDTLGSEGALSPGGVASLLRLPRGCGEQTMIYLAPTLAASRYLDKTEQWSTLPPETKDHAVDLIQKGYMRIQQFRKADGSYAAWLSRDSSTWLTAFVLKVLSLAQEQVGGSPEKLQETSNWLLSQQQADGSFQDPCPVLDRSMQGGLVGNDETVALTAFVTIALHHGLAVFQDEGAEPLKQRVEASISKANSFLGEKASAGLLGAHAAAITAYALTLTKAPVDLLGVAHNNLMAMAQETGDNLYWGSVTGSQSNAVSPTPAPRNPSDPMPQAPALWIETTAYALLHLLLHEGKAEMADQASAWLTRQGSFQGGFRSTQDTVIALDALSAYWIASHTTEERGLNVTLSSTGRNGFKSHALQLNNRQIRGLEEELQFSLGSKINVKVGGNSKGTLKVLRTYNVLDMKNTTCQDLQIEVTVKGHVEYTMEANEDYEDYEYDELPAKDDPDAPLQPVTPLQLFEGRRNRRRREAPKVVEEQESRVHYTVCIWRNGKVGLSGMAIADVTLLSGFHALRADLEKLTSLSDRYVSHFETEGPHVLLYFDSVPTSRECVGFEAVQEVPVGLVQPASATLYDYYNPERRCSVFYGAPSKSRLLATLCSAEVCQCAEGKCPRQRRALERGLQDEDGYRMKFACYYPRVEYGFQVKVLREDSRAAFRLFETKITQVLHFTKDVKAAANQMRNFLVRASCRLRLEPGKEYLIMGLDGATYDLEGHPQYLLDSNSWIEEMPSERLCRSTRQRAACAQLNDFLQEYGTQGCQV
T1 sequence (P01024 23-667 limits assumed, chain 1 of 3): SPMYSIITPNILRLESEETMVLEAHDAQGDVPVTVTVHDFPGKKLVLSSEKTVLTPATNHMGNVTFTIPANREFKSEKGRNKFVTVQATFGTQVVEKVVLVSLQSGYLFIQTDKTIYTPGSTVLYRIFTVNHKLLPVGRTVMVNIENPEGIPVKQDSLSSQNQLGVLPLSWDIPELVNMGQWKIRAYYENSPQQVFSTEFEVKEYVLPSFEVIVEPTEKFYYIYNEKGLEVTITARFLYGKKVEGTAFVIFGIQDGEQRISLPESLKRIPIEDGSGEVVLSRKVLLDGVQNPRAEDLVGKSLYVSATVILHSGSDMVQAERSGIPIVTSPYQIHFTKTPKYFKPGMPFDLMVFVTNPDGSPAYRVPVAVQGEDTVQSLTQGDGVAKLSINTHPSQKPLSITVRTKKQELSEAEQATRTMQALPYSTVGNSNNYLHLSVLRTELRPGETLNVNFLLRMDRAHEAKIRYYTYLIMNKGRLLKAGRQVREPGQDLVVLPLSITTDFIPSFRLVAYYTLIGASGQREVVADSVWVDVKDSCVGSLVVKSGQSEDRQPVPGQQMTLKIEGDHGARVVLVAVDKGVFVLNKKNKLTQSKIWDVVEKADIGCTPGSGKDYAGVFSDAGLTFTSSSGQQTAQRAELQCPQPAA
T1 sequence (P01024 749-1303 limits assumed, chain 2 of 3): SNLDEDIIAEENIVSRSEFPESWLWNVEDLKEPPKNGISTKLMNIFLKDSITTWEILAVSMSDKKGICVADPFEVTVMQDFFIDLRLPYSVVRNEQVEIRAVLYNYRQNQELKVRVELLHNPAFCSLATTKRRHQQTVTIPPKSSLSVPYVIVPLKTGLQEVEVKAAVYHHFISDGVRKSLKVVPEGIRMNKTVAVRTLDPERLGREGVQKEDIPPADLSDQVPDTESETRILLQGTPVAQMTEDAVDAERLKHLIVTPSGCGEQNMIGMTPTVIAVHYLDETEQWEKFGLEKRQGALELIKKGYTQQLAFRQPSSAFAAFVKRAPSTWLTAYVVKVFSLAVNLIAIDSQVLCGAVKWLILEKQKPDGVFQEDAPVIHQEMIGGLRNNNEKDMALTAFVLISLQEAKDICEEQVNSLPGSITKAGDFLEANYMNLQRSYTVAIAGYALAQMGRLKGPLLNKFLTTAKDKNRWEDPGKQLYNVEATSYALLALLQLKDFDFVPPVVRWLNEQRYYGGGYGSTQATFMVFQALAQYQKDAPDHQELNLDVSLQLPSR
T1 sequence (P01024 1321-1663 limits assumed, chain 3 of 3): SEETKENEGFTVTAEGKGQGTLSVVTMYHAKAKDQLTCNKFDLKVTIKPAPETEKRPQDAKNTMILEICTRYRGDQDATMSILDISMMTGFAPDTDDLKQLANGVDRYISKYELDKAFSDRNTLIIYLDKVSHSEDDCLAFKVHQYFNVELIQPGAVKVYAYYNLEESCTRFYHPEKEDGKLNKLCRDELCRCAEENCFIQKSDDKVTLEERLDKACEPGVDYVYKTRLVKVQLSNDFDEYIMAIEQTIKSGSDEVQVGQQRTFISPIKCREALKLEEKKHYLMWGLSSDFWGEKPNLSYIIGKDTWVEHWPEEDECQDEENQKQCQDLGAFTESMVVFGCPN

Molecule	Kd (C4b (Complement Tech) [1])	koff (C4b (Complement Tech) [1])	kon (C4b (Complement Tech) [1])	Kd (C4b (Complement Tech) [2])	Kd (C4b (Complement Tech) [3])	KD vs. hCR1 KD (X (fold of hCR1 KD)) (C4b (Complement Tech) [4])	Kd (iC3b (Complement Tech) [5])	koff (iC3b (Complement Tech) [5])	kon (iC3b (Complement Tech) [5])	Kd (iC3b (Complement Tech) [6])
Recombinant His-tagged human CR1 (R&D Systems) (from UniProt P17927 42-1971) (receptor)	13.2 nM	0.000586 s⁻¹	44300 M⁻¹ s⁻¹	3010 nM						
recombinant CR2CR1 #1 (CR2-CR1 fusion protein, CR2 SCR1-4 fused to CR1 SCR1-10), His-tagged	12.4 nM	0.000694 s⁻¹	56000 M⁻¹ s⁻¹		21100 nM	0.94				
recombinant CR2CR1 #7 (CR2-CR1 fusion protein, CR2 SCR1-4 fused to CR1 SCR1-4, 7-11, 14-17), His-tagged	10.5 nM	0.000663 s⁻¹	63300 M⁻¹ s⁻¹			0.8				
Recombinant His-tagged human CR2 (R&D Systems) (receptor, UniProt P20023 21-971, looked up, Bought protein; also called rhCR2; hCR2; not shown: His tag) ISCGSPPPILNGRISYYSTPIAVGTVIRYSCSGTFRLIGEKSLLCITKDKVDGTWDKPAPKCEYFNKYSSCPEPIVPGGYKIRGSTPYRHGDSVTFACKTNFSMNGNKSVWCQANNMWGPTRLPTCVSVFPLECPALPMIHNGHHTSENVGSIAPGLSVTYSCESGYLLVGEKIINCLSSGKWSAVPPTCEEARCKSLGRFPNGKVKEPPILRVGVTANFFCDEGYRLQGPPSSRCVIAGQGVAWTKMPVCEEIFCPSPPPILNGRHIGNSLANVSYGSIVTYTCDPDPEEGVNFILIGESTLRCTVDSQKTGTWSGPAPRCELSTSAVQCPHPQILRGRMVSGQKDRYTYNDTVIFACMFGFTLKGSKQIRCNAQGTWEPSAPVCEKECQAPPNILNGQKEDRHMVRFDPGTSIKYSCNPGYVLVGEESIQCTSEGVWTPPVPQCKVAACEATGRQLLTKPQHQFVRPDVNSSCGEGYKLSGSVYQECQGTIPWFMEIRLCKEITCPPPPVIYNGAHTGSSLEDFPYGTTVTYTCNPGPERGVEFSLIGESTIRCTSNDQERGTWSGPAPLCKLSLLAVQCSHVHIANGYKISGKEAPYFYNDTVTFKCYSGFTLKGSSQIRCKADNTWDPEIPVCEKETCQHVRQSLQELPAGSRVELVNTSCQDGYQLTGHAYQMCQDAENGIWFKKIPLCKVIHCHPPPVIVNGKHTGMMAENFLYGNEVSYECDQGFYLLGEKKLQCRSDSKGHGSWSGPSPQCLRSPPVTRCPNPEVKHGYKLNKTHSAYSHNDIVYVDCNPGFIMNGSRVIRCHTDNTWVPGVPTCIKKAFIGCPPPPKTPNGNHTGGNIARFSPGMSILYSCDQGYLLVGEALLLCTHEGTWSQPAPHCKEVNCSSPADMDGIQKGLEPRKMYQYGAVVTLECEDGYMLEGSPQSQCQSDHQWNPPLAVCRSR							6.51 nM	0.000965 s⁻¹	148000 M⁻¹ s⁻¹	439 nM
